Assay results taken from the supplement of paper PMC10567573.

B1: KIAA0774 (parent)
chain: FEDEVKRLGWQQQAELQELEERLQ

Variants of: B1
Assay: protein stability index of a GFP-peptide fusion (GPS, HEK-293T) (PSI 1-6); higher = more stable
Conditions: c terminus: a fixed tail appended
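Also: lentivirally expressed fusions sorted by FACS into six bins by GFP to DsRed ratio, PSI derived from sequencing read proportions per bin multiplied by bin number.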

Protein stability index of substitutions, site by site:
G9: L 3.15 | S 1.91 | E 4.63 | Q 3.83 | W 3.54 | V 4.02 | T 2.04 | I 3.73 | K 3.23
E20: T 3.53 | V 3.49 | P 4.8 | F 2.51 | G 3.05 | N 4.32 | Y 3.71 | L 3.38
E18: F 2.13 | V 3.84 | D 4.61 | W 2.4 | N 3.94 | K 4.41 | S 4.7
Q24: P 4.96 | K 4.73 | L 3.48 | T 3.99 | H 3.93
Q11: C 3.86 | W 4.16 | E 4.83 | F 3.73 | I 3.88 | D 5.16 | V 1.72
L8: F 3.98 | N 3.48 | V 4.25 | Q 4.48 | R 4.05 | I 3.86 | M 2.83
E2: A 2.71 | L 3.05 | P 3.16 | F 3.25 | H 2.16 | Q 2.93 | Y 3.56 | C 2.71
R7: N 4.12 | I 3.67 | C 4.61 | G 4.9 | P 4.19 | L 3.68
E15: H 3.53 | R 2.92 | P 3.71 | I 2.64 | G 3.85 | D 4.46 | V 3.65 | Y 2.65 | K 3.2
L23: D 5.21 | M 4.03 | S 4.91 | R 4.58 | C 4.14 | A 4.08 | G 4.58
E4: W 2.81 | A 2.75 | Q 3.26 | P 3.56 | T 3.2 | H 3.59 | G 3.21 | R 3.32
R22: W 4.31 | N 5.69 | K 3.85 | G 5.26 | S 5.01 | A 4.99 | I 4.06 | M 4.04
A14: Y 2.29 | I 1.73 | M 4.37 | R 4.7 | T 2.53 | C 3 | P 5.4 | Q 4.61 | D 5.2
K6: S 4.47 | P 4.48 | M 4.17 | E 4.67 | I 3.39 | L 4.12 | G 4.5
L19: Y 4.14 | E 5.22 | R 3.68 | C 4.43 | T 4.65 | F 4.12
D3: R 2.35 | C 2.3 | K 2.03 | V 2.76 | H 2.99 | Q 3.29 | F 2.72
Q17: M 4.57 | P 4.91 | T 4.78 | G 5.2 | N 5.34 | A 4.22 | K 4.88 | S 4.75
W10: M 5.65 | V 4.69 | D 5.8 | R 5.5 | K 5.13 | H 5.09
F1: A 4.11 | K 2.96 | V 3.66 | Q 4.05
E21: F 4.07 | H 4.41 | P 4.51 | N 3.17 | T 4.69
V5: W 3.5 | E 4.44 | G 3.99 | C 3.6 | M 4.19 | P 4.01 | D 4.37 | Y 4.24
Q13: W 3.67 | V 3.86 | A 4.31 | C 4.83 | N 5.2 | F 4.42 | D 4.76
Q12: S 5.12 | R 3 | N 4.8 | E 4.09 | M 3.13 | Y 2.31 | L 2.85 | H 3.1 | K 4.03
L16: Y 4.13 | P 5.24
